# Experimental data reported in patent publication US20210277110A1 (Janssen / Centocor, published 2021).
# Changes are numbered by the printed parent chain.
# T1: Extracellular domain of cyno PD1 (cPD1-ECD) (Macaca fascicularis (cynomolgus))
# T1 construct: Expressed with a hexahistidine tag or as Fc fusion; also called cynoPD1-ECD; cynoPD-1-ECD
# T1 chain: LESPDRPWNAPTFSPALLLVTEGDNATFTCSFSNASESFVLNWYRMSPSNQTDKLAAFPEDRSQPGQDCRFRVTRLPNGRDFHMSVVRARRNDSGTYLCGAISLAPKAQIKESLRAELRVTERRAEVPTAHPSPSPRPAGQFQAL
# B1: PD1B177 (antibody, V domains shown)
# VH: QVQLVQSGAEVKKPGSSVKVSCKASGGTFSDYVISWVRQAPGQGLEWMGGIIPIYGTANYAQKFQGRVTITADESTSTAYMELSSLRSEDTAVYYCARGTLDRTGHLDYWGQGTLVTVSS
# VL: EIVLTQSPATLSLSPGERATLSCRASQSVSSYLAWYQQKPGQAPRLLIYDASNRATGIPARFSGSGSGTDFTLTISSLEPEDFAVYYCQQRSNWPLTFGQGTKVEIK
# notes: Tested as IgG2sigma; also called PD1H164/PH9L3
# B2: PD1B187 (antibody, V domains shown)
# VH: QVQLVQSGAEVKKPGSSVKVSCKASGGTFSSYAISWVRQAPGQGLEWMGGIIPIFGTANYAQKFQGRVTITADESTSTAYMELSSLRSEDTAVYYCARPGLAAAYDTGSLDYWGQGTLVTVSS
# VL: B1 VL with S30R, S92N, N93Y
# notes: Tested as IgG2sigma; also called PD1H3/PD1L148
# B3: PD1B114 (antibody, human IgG2, kappa, V domains shown)
# VH: B2 VH with S109N
# VL: EIVLTQSPATLSLSPGERATLSCRASQSVSSYLAWYQQKPGQAPRLLIYDASNRATGIPARFSGSGSGTDFTLTISSLEPEDFAVYYCQQRSNWPLTFGQGTKVEIKR
# notes: IgG2sigma/kappa; also called PD1H24/PH9L3
# B4: PD1B160 (antibody, human IgG2, kappa, V domains shown)
# VH: B2 VH with G56D, S109N
# VL: B3 VL with S30D, Y49K, N53D, S92G
# notes: IgG2sigma/kappa; VH 42, VL 51; also called PD1H131/PD1L101
# B5: PD1B183 (antibody, human IgG2, kappa, V domains shown)
# VH: B2 VH
# VL: B3 VL with Y49K, S92G, N93Y
# notes: IgG2sigma/kappa; VH 43, VL 54; also called PD1H3/PD1L109
# B6: PD1B184 (antibody, human IgG2, kappa, V domains shown)
# VH: B2 VH
# VL: B3 VL with S30R, S31N, Y49H, S92N, N93Y
# notes: IgG2sigma/kappa; VH 43, VL 50; also called PD1H3/PD1L128
# B7: PD1B185 (antibody, human IgG2, kappa, V domains shown)
# VH: B2 VH
# VL: B3 VL with S30R, S31N, N53D, S92W
# notes: IgG2sigma/kappa; VH 43, VL 55; also called PD1H3/PD1L132
# B8: PD1B192 (antibody, human IgG2, kappa, V domains shown)
# VH: B2 VH
# VL: B3 VL with S30D, Y49H, S92N, N93Y
# notes: IgG2sigma/kappa; VH 43, VL 57; also called PD1H3/PD1L133
# B9: PD1B197 (antibody, V domains shown)
# VH: B1 VH with S30K, D31S, S35H, Y55F, T100Y, L101V, D102R, R103A, H106M
# VL: B1 VL with S31N, S92A, N93Y
# notes: also called PD1H163/PD1L185
# B10: PD1B194 (antibody, V domains shown)
# VH: B2 VH with G56D
# VL: B1 VL with S30R, N53Y, S92D, N93Y
# notes: also called PD1H170/PD1L71
# B11: PD1B198 (antibody, V domains shown)
# VH: B1 VH with S30K, D31S, S35H, Y55F, T100Y, L101V, D102R, R103A, H106M
# VL: B1 VL with Y49E, N53S, S92A, N93E
# notes: also called PD1H163/PD1L187
# B12: PD1B244 (antibody, human IgG4 S228P, kappa, V domains shown)
# VH: B2 VH with G56D
# VL: B3 VL with S30R, S92N, N93Y
# Molecular target: T2, Full length human PD1 (huPD1) on cells (human, UniProt Q15116 25-288)
# T2 construct: on T cells of human donors in the MLR and CMV assays (functional); also called PD-1 on Jurkat cells
# Assay: flow cytometry, PHA-stimulated Jurkat cells
# Method: Jurkat cells were stimulated overnight with 20 ng/ml of PHA, harvested, washed, and checked for viability. The cells were then incubated at 6-10° C. for 45-60 minutes with various concentrations of test antibodies, washed and incubated at 6-10° C. for 45-60 minutes with FITC-labeled goat anti-human IgG. The cells were washed and fixed with BD Cytofix, refrigerated overnight and analyzed on a MACSQuant flow cytometer. The percentage of PD-1 positive cells at each antibody concentration was plotted vs log of the antibody concentration and EC₅₀ values were generated in Prism.
# T2 sequence (Q15116 25-288 limits assumed): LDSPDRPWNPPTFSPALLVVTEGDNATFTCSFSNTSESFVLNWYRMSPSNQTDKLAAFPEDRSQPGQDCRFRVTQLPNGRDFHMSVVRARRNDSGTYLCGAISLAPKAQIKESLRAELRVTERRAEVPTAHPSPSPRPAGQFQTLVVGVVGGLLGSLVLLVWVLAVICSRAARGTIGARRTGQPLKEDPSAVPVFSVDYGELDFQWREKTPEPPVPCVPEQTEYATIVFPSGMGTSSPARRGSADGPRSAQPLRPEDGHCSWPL
row,Binder,EC50
1,B1,0.05 µg/mL
2,B2,0.09 µg/mL
3,B3,0.47 µg/mL
4,B4,0.08 µg/mL
5,B5,0.08 µg/mL
6,B6,0.08 µg/mL
7,B7,0.09 µg/mL
8,B8,0.06 µg/mL

# Molecular target: T1, Extracellular domain of cyno PD1 …
# Assay: SPR ProteOn, cynoPD1-ECD; RANGE high replicate; RANGE high replicate
# Method: (§1) Affinity measurements using Surface Plasmon Resonance (SPR) were performed using a ProteOn XPR36 system. A biosensor surface was prepared by coupling a mixture of anti-IgG Fc modified alginate polymer layer surface of a GLC chip using the manufacturer instructions for amine-coupling chemistry. […] The collected data were processed and fitted to a Langmuir 1:1 binding model. The result for each mAb was reported in the format of kₒₙ (On-rate), koff (Off-rate) and KD (equilibrium dissociation constant).
# (§2) STDEV were calculated for 3 or more replicates generated for human and cyno proteins. If less than 3 replicates were calculated, RANGE was indicated. RANGE is defined as the low and high values for the replicates tested. For samples in the Table 10 or Table 11 without value indicated in RANGE or STDEV, only one experiment was performed.
Binder,koff,kon
B1,0.00193 s⁻¹,304000 M⁻¹ s⁻¹
B2,0.00185 s⁻¹,370000 M⁻¹ s⁻¹
B5,0.00876 s⁻¹,337000 M⁻¹ s⁻¹
B6,0.00292 s⁻¹,268000 M⁻¹ s⁻¹
B7,–,343000 M⁻¹ s⁻¹
B8,0.00522 s⁻¹,324000 M⁻¹ s⁻¹

# Molecular target: T1, Extracellular domain of cyno PD1 …
# Assay: SPR ProteOn, captured mAb, cynoPD1-ECD analyte
# Method: as §1, §2
Binder,Kd,koff,kon
B1,6.47 nM,0.00189 s⁻¹,292000 M⁻¹ s⁻¹
B2,5.32 nM,0.00157 s⁻¹,294000 M⁻¹ s⁻¹
B3,81.5 nM,0.0239 s⁻¹,294000 M⁻¹ s⁻¹
B4,5.23 nM,0.00166 s⁻¹,317000 M⁻¹ s⁻¹
B5,26.3 nM,0.00839 s⁻¹,320000 M⁻¹ s⁻¹
B6,11.5 nM,0.00274 s⁻¹,238000 M⁻¹ s⁻¹
B7,30.5 nM,0.00947 s⁻¹,311000 M⁻¹ s⁻¹
B8,16.4 nM,0.00504 s⁻¹,307000 M⁻¹ s⁻¹

# Molecular target: T3, Extracellular domain of human PD1 (huPD1-ECD) (human, UniProt Q15116 25-169, biotinylated in the ligand inhibition assay (sites not given))
# T3 construct: Expressed with a hexahistidine tag or as Fc fusion; also called biotinylated PD-1
# Assay: SPR ProteOn, captured mAb, huPD1-ECD analyte
# T3 sequence (Q15116 25-169 limits assumed): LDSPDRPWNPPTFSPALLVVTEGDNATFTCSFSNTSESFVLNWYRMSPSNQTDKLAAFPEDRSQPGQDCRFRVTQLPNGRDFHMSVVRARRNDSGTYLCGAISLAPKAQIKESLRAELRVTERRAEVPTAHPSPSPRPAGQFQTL
Binder,Kd,koff,kon
B9,4.9 nM,0.00324 s⁻¹,658000 M⁻¹ s⁻¹
B10,1.07 nM,0.00096 s⁻¹,897000 M⁻¹ s⁻¹
B11,10.4 nM,0.00934 s⁻¹,895000 M⁻¹ s⁻¹

# Molecular target: T1, Extracellular domain of cyno PD1 …
# Assay: SPR ProteOn, cynoPD1-ECD; RANGE high replicate
# Method: as §1, §2
Binder,Kd,koff,kon
B1,6.9 nM,–,–
B2,8.4 nM,–,–
B4,5.3 nM,0.00168 s⁻¹,317000 M⁻¹ s⁻¹
B5,28.8 nM,–,–
B6,14.1 nM,–,–
B7,34.1 nM,0.00955 s⁻¹,–
B8,18 nM,–,–

# Molecular target: T1, Extracellular domain of cyno PD1 …
# Assay: SPR ProteOn, captured mAb, cynoPD1-ECD analyte
# Remark: another data set of the same source
# Method: as §1
# STDEV were calculated for 3 or more replicates generated for human and cyno proteins. If less than 3 replicates were calculated, RANGE is indicated. RANGE is defined as the low and high values for the replicates tested. For samples without RANGE or STDEV, only one experiment was performed
Binder,Kd,koff,kon
B9,4.6 nM,0.00126 s⁻¹,275000 M⁻¹ s⁻¹
B10,0.6 nM,0.000193 s⁻¹,322000 M⁻¹ s⁻¹
B11,11.2 nM,0.00416 s⁻¹,372000 M⁻¹ s⁻¹

# Molecular target: T3, Extracellular domain of human PD1 …
# Assay: SPR ProteOn, captured mAb, huPD1-ECD analyte
# Remark: another data set of the same source
# Method: as §1, §2
Binder,Kd,koff,kon
B1,5 nM,0.00257 s⁻¹,515000 M⁻¹ s⁻¹
B2,5.2 nM,0.00278 s⁻¹,535000 M⁻¹ s⁻¹
B3,54.1 nM,0.0279 s⁻¹,517000 M⁻¹ s⁻¹
B4,6.87 nM,0.00371 s⁻¹,540000 M⁻¹ s⁻¹
B5,16 nM,0.00844 s⁻¹,527000 M⁻¹ s⁻¹
B6,11.4 nM,0.00509 s⁻¹,445000 M⁻¹ s⁻¹
B7,13.1 nM,0.00765 s⁻¹,585000 M⁻¹ s⁻¹
B8,–,0.0117 s⁻¹,541000 M⁻¹ s⁻¹

# Molecular target: T1, Extracellular domain of cyno PD1 …
# Assay: SPR ProteOn, cynoPD1-ECD; RANGE low replicate
Binder,Kd,koff,kon
B1,6.1 nM,0.00184 s⁻¹,280000 M⁻¹ s⁻¹
B2,3.5 nM,0.00128 s⁻¹,220000 M⁻¹ s⁻¹
B4,5.1 nM,0.00163 s⁻¹,316000 M⁻¹ s⁻¹
B5,23.9 nM,0.00801 s⁻¹,304000 M⁻¹ s⁻¹
B6,9.5 nM,0.00255 s⁻¹,208000 M⁻¹ s⁻¹
B7,27.5 nM,0.00938 s⁻¹,280000 M⁻¹ s⁻¹
B8,15 nM,0.00486 s⁻¹,290000 M⁻¹ s⁻¹

# Molecular target: T2, Full length human PD1 (huPD1) on cells
# Assay: cell-based or functional assay
Binder,"CMV EC50, nM (IFN-γ induction)","MLR EC50, nM (IFN-γ induction)"
B12,0.03 nM,0.08 nM

# Molecular target: T3, Extracellular domain of human PD1 …
# Assay: MSD ligand inhibition, competitor coated cynoPDL1-ECD
# Method: The ligand inhibition assay design was MSD (Mescoscale Discovery) based. A MSD plate was directly coated with ligand (cynoPDL1-ECD, huPDL1-ECD or huPDL2-ECD) and incubated overnight at 4° C. The following day, the coating solution was removed and the plate was blocked. […] Depending on the panel of antibodies to be tested, the antibodies were tested as titrations or at a fixed concentration. […] The mAbs that were positive for inhibition of ligand binding at one concentration were also tested in dose responses for inhibition of various PD-1 ligands.
# Select Fabs were cloned as IgG2sigma isotype and characterized for their Jurkat cell binding and cynomolgus PD-L1 ligand inhibition at concentrations 1 μg/ml and 10 μg/ml.
Binder,percentage ligand not blocked at 1 µg/ml,percentage ligand not blocked at 10 µg/ml
B1,7%,8%
B2,7%,5%
B3,8%,13%
B4,4%,3%
B5,5%,5%
B6,4%,4%
B7,8%,5%
B8,5%,5%
